Reference: patent US20240376151A1, “STAPLED PEPTIDES AND METHODS THEREOF” (FOG PHARMACEUTICALS, INC., priority 2022, published 2024)
Numbered stars: 1 amine (or outer) side, 2 acyl side, 3 side chain; on linkers, the order of the positions; unused ones are H or OH. Bridge positions count the residues as written; N and C are the ends. Ends that are not written are not given here. Phenylene(1,4-NHCOCH2)2 = O=C(C[*:1])Nc1ccc(NC(=O)C[*:2])cc1

Columns and labels:
CHIP = biological target: T1, CHIP (Homo sapiens, UniProt Q9UNE7); test: Naive Library Presenter Screening (phage, NGS), CHIP; format: binding; conditions: for interaction data, BLANK: Blank = Media only
T1 construct: N-term truncated CHIP (also known as STUB1, Uniprot ID: Q9UNE7, residues 23-303); made in house; host or cells: E. coli BL21 CodonPlus
T1 sequence (Q9UNE7 23-303): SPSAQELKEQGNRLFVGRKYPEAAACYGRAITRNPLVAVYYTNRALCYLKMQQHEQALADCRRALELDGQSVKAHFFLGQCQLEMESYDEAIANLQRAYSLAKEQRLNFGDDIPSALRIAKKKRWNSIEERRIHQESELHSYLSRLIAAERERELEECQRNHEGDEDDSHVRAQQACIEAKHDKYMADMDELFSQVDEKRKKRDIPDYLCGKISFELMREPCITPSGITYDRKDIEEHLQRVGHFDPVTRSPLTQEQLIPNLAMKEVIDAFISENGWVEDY
Method: To conduct phage library screening, previously described procedures were utilized in accordance with the present disclosure.
Next-generation sequencing was performed as described in accordance with the present disclosure.
Hit ID and Clustering is performed according to a described procedure in accordance with the present disclosure.

RNF31 UBA domain = biological target: T2, RNF31 UBA domain (Homo sapiens, UniProt Q96EP0); test: Phage Library Screening with NGS, RNF31 UBA domain; format: binding; conditions: for phage screen NGS read-out at Target Concentration 10 / phage screen NGS read-out at Target Concentration 30 / phage screen NGS read-out at Target Concentration 100 / phage screen NGS read-out at Target Concentration 300: no competitor; for Phage library screen NGS readout, BLANK: cluster C46
T2 construct: RNF31 UBA domain protein (residues 480-639) with N-terminal Thioredoxin-TEV-6×his-yBBr-3C tags; Thioredoxin (N, cleaved yes); made in house; host or cells: E. coli BL21 (DE3) pLysS
T2 sequence (Q96EP0 480-639): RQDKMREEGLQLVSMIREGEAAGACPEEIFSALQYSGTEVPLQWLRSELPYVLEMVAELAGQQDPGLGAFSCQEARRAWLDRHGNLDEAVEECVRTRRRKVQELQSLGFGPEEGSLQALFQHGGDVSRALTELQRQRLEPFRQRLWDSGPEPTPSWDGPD

[1] = CHIP clusters (C83, C84), first column
[2] = CHIP clusters (C83, C84), second column
[3] = CHIP clusters (C83, C84), target concentration 10 nM
[4] = CHIP clusters (C83, C84), target concentration 30 nM
[5] = CHIP clusters (C83, C84), target concentration 100 nM
[6] = CHIP clusters (C83, C84), target concentration 300 nM
[7] = CHIP clusters (C83, C84), target concentration 1000 nM, first column
[8] = CHIP clusters (C83, C84), target concentration 1000 nM, second column
[9] = CHIP target concentration 10 nM
[10] = CHIP target concentration 30 nM
[11] = CHIP target concentration 100 nM
[12] = CHIP target concentration 300 nM
[13] = CHIP target concentration 1000 nM, first column
[14] = CHIP target concentration 1000 nM, second column

| interaction data, BLANK (CHIP; [1]) | interaction data, BLANK (CHIP; [2]) | interaction data at Target Concentration 10 (CHIP; [3]) | interaction data at Target Concentration 30 (CHIP; [4]) | interaction data at Target Concentration 100 (CHIP; [5]) | interaction data at Target Concentration 300 (CHIP; [6]) | interaction data at Target Concentration 1000 (CHIP; [7]) | interaction data at Target Concentration 1000 (CHIP; [8]) | Sequence | further results |
| --- | --- | --- | --- | --- | --- | --- | --- | --- | --- |
| 0 | 0 | 0 | 0 | 3 | 15 | 6 | 49 | DPANHICHYAAHICDVD (DPANHICHYAAHICDVD-NH2; linker 7-14 via Phenylene(1,4-NHCOCH2)2 (inferred)) | – |
| 0 | 0 | 0 | 0 | 0 | 51 | 41 | 54 | DPAFFECVRAASICMVD (linker 7-14 via Phenylene(1,4-NHCOCH2)2 (inferred)) | – |
| – | – | – | – | – | – | – | – | PCYSAWITCES (linker 2-9 via Phenylene(1,4-NHCOCH2)2 (inferred)) | interaction data at Target Concentration 10 (CHIP; [9]): 0; interaction data at Target Concentration 30 (CHIP; [10]): 134; interaction data at Target Concentration 100 (CHIP; [11]): 286; interaction data at Target Concentration 300 (CHIP; [12]): 457; interaction data at Target Concentration 1000 (CHIP; [13]): 563; interaction data at Target Concentration 1000 (CHIP; [14]): 538 |
| 0 | 0 | 0 | 30 | 23 | 39 | 80 | 248 | DPAFDACQFAAAMCDHQ (linker 7-14 via Phenylene(1,4-NHCOCH2)2 (inferred)) | – |
| 0 | 0 | 0 | 0 | 2 | 15 | 60 | 47 | DPAFERCQLAAAFCYDS (linker 7-14 via Phenylene(1,4-NHCOCH2)2 (inferred)) | – |
| 0 | 0 | 0 | 0 | 54 | 61 | 31 | 91 | DPAEYACYHAASICNVD (linker 7-14 via Phenylene(1,4-NHCOCH2)2 (inferred)) | – |
| – | – | – | – | – | – | – | – | PCWSAWLACEL (linker 2-9 via Phenylene(1,4-NHCOCH2)2 (inferred)) | interaction data at Target Concentration 10 (CHIP; [9]): 0; interaction data at Target Concentration 30 (CHIP; [10]): 81; interaction data at Target Concentration 100 (CHIP; [11]): 72; interaction data at Target Concentration 300 (CHIP; [12]): 130; interaction data at Target Concentration 1000 (CHIP; [13]): 220; interaction data at Target Concentration 1000 (CHIP; [14]): 206 |
| – | – | – | – | – | – | – | – | ICYTAWLECE (linker 2-9 via Phenylene(1,4-NHCOCH2)2 (inferred)) | interaction data at Target Concentration 10 (CHIP; [9]): 0; interaction data at Target Concentration 30 (CHIP; [10]): 1; interaction data at Target Concentration 100 (CHIP; [11]): 5; interaction data at Target Concentration 300 (CHIP; [12]): 9; interaction data at Target Concentration 1000 (CHIP; [13]): 7; interaction data at Target Concentration 1000 (CHIP; [14]): 12 |
| – | – | – | – | – | – | – | – | PCYSAWIVCSD (linker 2-9 via Phenylene(1,4-NHCOCH2)2 (inferred)) | interaction data at Target Concentration 10 (CHIP; [9]): 4; interaction data at Target Concentration 30 (CHIP; [10]): 81; interaction data at Target Concentration 100 (CHIP; [11]): 123; interaction data at Target Concentration 300 (CHIP; [12]): 444; interaction data at Target Concentration 1000 (CHIP; [13]): 549; interaction data at Target Concentration 1000 (CHIP; [14]): 468 |
| 0 | 0 | 0 | 0 | 0 | 18 | 13 | 22 | DPAELFCTEAADICMVD (linker 7-14 via Phenylene(1,4-NHCOCH2)2 (inferred)) | – |
| – | – | – | – | – | – | – | – | ICYNAWFECE (linker 2-9 via Phenylene(1,4-NHCOCH2)2 (inferred)) | interaction data at Target Concentration 10 (CHIP; [9]): 0; interaction data at Target Concentration 30 (CHIP; [10]): 2; interaction data at Target Concentration 100 (CHIP; [11]): 9; interaction data at Target Concentration 300 (CHIP; [12]): 11; interaction data at Target Concentration 1000 (CHIP; [13]): 18; interaction data at Target Concentration 1000 (CHIP; [14]): 14 |
| 0 | 0 | 0 | 3 | 0 | 6 | 19 | 28 | DPAFTRCQFAAAVCNFT (linker 7-14 via Phenylene(1,4-NHCOCH2)2 (inferred)) | – |
| 0 | 0 | 0 | 0 | 0 | 31 | 28 | 27 | DPAINMCYRAAQICDVD (linker 7-14 via Phenylene(1,4-NHCOCH2)2 (inferred)) | – |
| 0 | 0 | 0 | 0 | 19 | 16 | 70 | 44 | DPAFWQCQFAAATCAHY (linker 7-14 via Phenylene(1,4-NHCOCH2)2 (inferred)) | – |
| – | – | – | – | – | – | – | – | DPAEWLCQMAAHNCIYL | phage screen NGS read-out at Target Concentration 10 (RNF31 UBA domain): 0; phage screen NGS read-out at Target Concentration 30 (RNF31 UBA domain): 1; phage screen NGS read-out at Target Concentration 100 (RNF31 UBA domain): 2; phage screen NGS read-out at Target Concentration 300 (RNF31 UBA domain): 13 |
| – | – | – | – | – | – | – | – | DPATQHCLAAAMWCHLI | phage screen NGS read-out at Target Concentration 10 (RNF31 UBA domain): 0; phage screen NGS read-out at Target Concentration 30 (RNF31 UBA domain): 0; phage screen NGS read-out at Target Concentration 100 (RNF31 UBA domain): 1; phage screen NGS read-out at Target Concentration 300 (RNF31 UBA domain): 3 |
| – | – | – | – | – | – | – | – | DPAQWVCHMAAMNCLYQ | phage screen NGS read-out at Target Concentration 10 (RNF31 UBA domain): 0; phage screen NGS read-out at Target Concentration 30 (RNF31 UBA domain): 1; phage screen NGS read-out at Target Concentration 100 (RNF31 UBA domain): 0; phage screen NGS read-out at Target Concentration 300 (RNF31 UBA domain): 4 |
| – | – | – | – | – | – | – | – | DPALTNCFSAAVYCAMF | Phage library screen NGS readout, Target Concentration 10 (RNF31 UBA domain; RNF31 UBA domain cluster C46, target concentration 10): 8; Phage library screen NGS readout, Target Concentration 30 (RNF31 UBA domain; RNF31 UBA domain cluster C46, target concentration 30): 39; Phage library screen NGS readout, Target Concentration 100 (RNF31 UBA domain; RNF31 UBA domain cluster C46, target concentration 100): 131; Phage library screen NGS readout, Target Concentration 300 (RNF31 UBA domain; RNF31 UBA domain cluster C46, target concentration 300): 239; Phage library screen NGS readout, Target Concentration 1000 (RNF31 UBA domain; RNF31 UBA domain cluster C46, target concentration 1000, first column): 297; Phage library screen NGS readout, Target Concentration 1000 (RNF31 UBA domain; RNF31 UBA domain cluster C46, target concentration 1000, second column): 291; Phage library screen NGS readout, BLANK (RNF31 UBA domain; column 1 of 5): 0; Phage library screen NGS readout, BLANK (RNF31 UBA domain; column 2 of 5): 1; Phage library screen NGS readout, BLANK (RNF31 UBA domain; column 3 of 5): 1; Phage library screen NGS readout, BLANK (RNF31 UBA domain; column 4 of 5): 0; Phage library screen NGS readout, BLANK (RNF31 UBA domain; column 5 of 5): 0 |
| – | – | – | – | – | – | – | – | DPAITHCTAAAMWCHLL | phage screen NGS read-out at Target Concentration 10 (RNF31 UBA domain): 1; phage screen NGS read-out at Target Concentration 30 (RNF31 UBA domain): 0; phage screen NGS read-out at Target Concentration 100 (RNF31 UBA domain): 9; phage screen NGS read-out at Target Concentration 300 (RNF31 UBA domain): 80 |
| – | – | – | – | – | – | – | – | DPAFSECVYAAFSCSWI | phage screen NGS read-out at Target Concentration 10 (RNF31 UBA domain): 1; phage screen NGS read-out at Target Concentration 30 (RNF31 UBA domain): 2; phage screen NGS read-out at Target Concentration 100 (RNF31 UBA domain): 3; phage screen NGS read-out at Target Concentration 300 (RNF31 UBA domain): 9 |
